According to the supplement of paper PMC12042874:
± gives the uncertainty stated by the source.

Experiment: amyloid nucleation score (Sup35N fusion, yeast selection) (log enrichment); library NNK1; higher = more nucleation; inactive = no reads after selection
Summary of the method: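 Sup35N was fused to peptides of 20 random codons and expressed in psi-negative yeast, which were induced with 100 μM copper sulfate for 24 hours and then grown on medium lacking adenine and uracil for 7 days at 30°C. Plasmid inserts from input and output were sequenced on Illumina. The nucleation score is the DiMSum log enrichment of output over input reads, centred on the mode score of non-aggregating sequences. Sequences with under 100 input reads were left out, and random libraries had three technical output replicates.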

Substance	amyloid nucleation score
DWVWWRTPSELVVYGADNWR	-0.328 ± 0.84
MKQALMGVVMIHWGGRSRV	0.687 ± 0.54
VLVFCVTMVRNYSWCIGWRI	0.035 ± 0.44
CKFIFRKIVVGFCFDQQ	3.67 ± 0.1
VAKAPSNSCTLCHDWYGRST	0.101 ± 1.4
TKLKNWGLNLGMASGNQSDR	-0.725 ± 0.45
ILEEYYLCIWLEVAWHICHA	-0.571 ± 0.8
MTSCMRWAVNRYSFLLWKAN	-0.416 ± 0.29
WLKVRNTR	-0.178 ± 0.49
HIFCRVIPLHMYKLADNW	0.841 ± 0.8
SRGPRFDCPMLVTVPSTSLE	-1.1 ± 2.4
CMAFVFKTCFVFRCNVGKCA	0.527 ± 0.28
CISIACSAD	0.342 ± 0.73
VHWLNCRLLGSLWVVGANWL	inactive
SMSPVSSVTN	0.07 ± 0.35
SLECLALTFVGYVTGRLMDL	-1.02 ± 1.7
AIAIPDRCLFYATRFSCDSR	inactive
WLLVNMDDYLAGYCITHFRN	-0.359 ± 0.58
ANELFTVDKKSVGYIPTHTL	0.445 ± 0.56
GLYFGLQLTGVS	0.04 ± 0.35
WSARHKHNTKCYFVRGQ	-0.081 ± 0.34
YISDSLYGFDEVGRDWLRVA	-0.025 ± 0.56

Substance	amyloid nucleation score
VCVLFELMSKVKGQKARKDQ	0.425 ± 1.1
LSKVVFGLWFCT	0.299 ± 0.34
FSSLWDGLLY	1.16 ± 0.69
YVCFVQSCFYARQGHMSGEA	0.165 ± 0.31
VLSSDGGGFVYFRYSGYTCR	0.253 ± 0.67
SINSRKSFMFIF	2.39 ± 0.16
VLLTMWFNFFLLRNRGVVFS	2.65 ± 0.08
WDTDVLRDNWSQLRFLVSGR	-0.216 ± 0.21
FVAASNYQAIPYCYRMIYVS	-0.102 ± 0.4
YVQTLSNTECNAIANMHERF	0.641 ± 0.42
LFLFTGLSSRSLHMCIYEIL	-0.046 ± 0.34
VMVWHCRSATTWWKQVTMNL	-0.584 ± 2.1
GSGINVRDITFIL	4.42 ± 0.071
CMPCSDFGSLWVAMDMNCFR	4.1 ± 0.085
VRVEKNCNFWLFSIVSCLPH	8.49 ± 0.065
RFQVPLCIPLINC	0.886 ± 0.74
ENEAGATYDGMMVVGSELSS	0.997 ± 0.43
IWSGATV	0.445 ± 0.41
HLHLGCWW	3.31 ± 0.14
TRKPEPINPQSIWSTVLQHE	0.54 ± 0.48
LWWYFHRTL	-0.168 ± 0.65
VWFRCWSPEVENGHVCLSCS	-0.026 ± 0.41

Substance	amyloid nucleation score
YSFIKCGSMCKEYKPCPTKL	-0.11 ± 0.51
GLLSK	-0.062 ± 0.56
RLTDRHLLWIIMQELNGFLV	-1.09 ± 2.7
LYWSPVWM	-0.232 ± 1.5
RTPHVERGTGIGLEISSTEV	0.041 ± 0.97
TSREGRGSLSVWSG	-0.19 ± 0.81
MPLAKSPLTLG	4.39 ± 0.062
GFFDSCLEMFTLSTYFCTFY	2.86 ± 0.096
FVTWH	inactive
LCDMAIDVFCLSCCK	6.652 ± 0.05
FFVFSSLGHLV	0.859 ± 0.26
YEKMTRFNVGKCHMVHFSLP	-0.376 ± 1.4
QWCSRRDMCFRSSVILCLWR	-0.035 ± 0.75
SYNFWLRMAGRCSKM	-0.618 ± 0.6
VNLGKNFTQLLIGRCVSKVR	0.417 ± 0.33
KRFSKDLLMAESDLCIGCMM	-0.817 ± 2.4
DFYLT	-0.257 ± 1.4
LLLLAIIDRYSIWK	-0.183 ± 0.41
SGGYLADYPLRVNLLFFNFV	0.431 ± 0.43
RIGFPVRYEEFALRFIYILE	-0.261 ± 0.72
FDQLEGLRCASSWKLLSSPG	0.062 ± 0.8
SGQMSLWSYL	0.781 ± 0.59

Substance	amyloid nucleation score
HIYNDSVRSFWIFQ	6.606 ± 0.05
MFGKLLICYRLYK	0.084 ± 0.75
TDMLMLIMIRVSLIGRRTFQ	inactive
SGDWTYFIIMRWDLPFIICR	0.265 ± 0.22
HSSNAAFCYAVTIYLQVLLV	0.837 ± 0.66
QDAIMFGSDPLFYILLGLWG	inactive
FFCWTCSAINLYRLLGPPMF	5.67 ± 0.064
MIMKYLSDVLTRIGHDIFFA	-0.872 ± 1.4
SKFFQLFSVTILYAMDSGPC	-0.462 ± 0.7
NPAITGRFSYCT	0.456 ± 1.2
IRIKDTFESWYSLINEDLGH	inactive
NWGCFQYSGTGNRLGTNAPV	-0.999 ± 0.68
FVGCRHHFGPCTNRCTK	0.087 ± 0.9
LSRTKGYC	0.558 ± 0.33
FYIFCDDFTGCS	1.84 ± 0.11
RRHTLSFVTGFCVIGFYGGD	4.48 ± 0.063
SGFSGVRNHPRETQLCHGSA	-0.094 ± 0.33
YVSLLYLLWLI	-0.326 ± 0.32
YSGNSIFLNLRSSCAYCGGD	6.35 ± 0.081
